Patent US20230295293A1, “BINDING MOLECULES AGAINST FRa” (AstraZeneca AB, priority 2022, published 2023)
Substitutions are numbered along the chain they refer to.

B1: AB1370026: anti-FRα fully human IgG1 antibody; VH SEQ ID NO: 39, VL SEQ ID NO: 40 (antibody, V domains shown)
VH: EVQLVESGGGLVKPGGSLRLSCAASGFTFSSYAMSWVRQAPGKGLEWVSSISSGRSYIYYADSVKGRFTISRDNAKNSLYLKMNSLRDEDTAVYYCAREMQQLALDYWGQGTLVTVSS
VL: DIQMTQSPSSLSASVGDRVTITCRASQGISNFLAWFQQAPGKAPKSLIYAASSLQSGVPSKFSGSGSGTDFTLTISSLQPEDFATYYCQQYNSYPFTFGQGTKLEIK
B2: AB1370095: anti-FRα fully human IgG1 antibody; VH SEQ ID NO: 45, VL SEQ ID NO: 46 (antibody, V domains shown)
VH: EVQLVESGGGLVKPGGSLRLSCAASGFTFSSYSMNWVRQAPGKGLEWVSSISSRSSYVYYADSVKGRFTISRDNAKNSLYLQMNSLRAEDTAVYYCARGMTTLTFDYWGQGTLVTVSS
VL: B1 VL with N31S, A39K, F96L, Q100G, L104V
B3: AB1370083: anti-FRα fully human IgG1 antibody; VH SEQ ID NO: 43, VL SEQ ID NO: 44 (antibody, V domains shown)
VH: B2 VH with S33N, R54G, V58I, V64M, Y80F
VL: B1 VL with N31T, A39K, G68E, N92I, F96L, Q100G, L104V
B4: AB1370035: anti-FRα fully human IgG1 antibody; VH SEQ ID NO: 41, VL SEQ ID NO: 42 (antibody, V domains shown)
VH: QVQLQQSGPGLVKPSQTLSLTCAISGDSVSSNSAAWNWIRQSPSRGLEWLGRTYYRSNWYNDYTLSVKSRITVNPDTSKNQFSLQLNSVTPEDTAVYYCVRGVGRFDSWGQGTLVTVSS
VL: DIQMTQSPSTLSASVGDRVIITCRASQSISSWLAWYQQKPGKAPKLLIYKASSLESGVPSRFSGSGSGTEFTLTITSLQPDDFASYYCQEYKTYSIFTFGPGTKVDIK

Test system: not listed separately
Test: Hydrophobic interaction chromatography (HIC) HPLC
Format: physicochemical
Details: higher retention = more hydrophobic

| Molecule | Retention time by HIC-HPLC |
| --- | --- |
| B1 | 1.96 min |
| B2 | 2.12 min |
| B3 | 2.27 min |
| B4 | 2.25 min |

Test system: not listed separately
Test: Accelerated thermal stability assay, HP-SEC
Format: physicochemical
Details: 4° C., 2 weeks, 1 mg/ml in PBS
Experimental: IgG were diluted to 1 mg/ml in PBS then incubated at 4° C. or 45° C. for 2 weeks then filtered using filter spin columns (Millipore, UFC30HVNB). High performance-size exclusion chromatography (HP-SEC) was performed by loading 70 μl of IgG onto a TSKgel G3000SWXL; 5 μm, 7.8 mm×300 mm column using a flow rate of 1 ml/min and 0.1 M sodium phosphate dibasic anhydrous and 0.1 M sodium sulphate, pH 6.8 as the isocratic running buffer. Larger molecules are excluded from the pores of the size exclusion column to a greater extent than smaller molecules, and therefore elute earlier. Peaks eluting earlier than the monomer peak are recorded as aggregates. Peaks eluting after the monomer peak (excluding the buffer-related peak) are recorded as fragments. In parallel, antibodies were profiled in the HTRF epitope competition assay for changes in potency.

| Molecule | HP SEC % monomer |
| --- | --- |
| B1 | 100% |
| B2 | 99.2% |
| B3 | 99.6% |
| B4 | 100% |

Same assay, conditions: 45° C., 2 weeks, 1 mg/ml in PBS

| Molecule | HP SEC % monomer |
| --- | --- |
| B1 | 97.3% |
| B2 | 96.6% |
| B3 | 98.3% |
| B4 | 97.3% |

Test system: cyno FRα
Sequence (as listed by the source): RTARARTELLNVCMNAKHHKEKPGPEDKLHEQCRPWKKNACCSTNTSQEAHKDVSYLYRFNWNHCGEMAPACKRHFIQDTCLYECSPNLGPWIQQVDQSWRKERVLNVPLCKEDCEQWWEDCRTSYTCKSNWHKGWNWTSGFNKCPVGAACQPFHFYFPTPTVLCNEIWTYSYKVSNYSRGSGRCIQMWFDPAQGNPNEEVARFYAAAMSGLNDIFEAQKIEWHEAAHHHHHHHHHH
Test: Biacore T200 surface plasmon resonance affinity
Format: binding, cynomolgus monkey
Details: SPR 25° C.
Experimental: (§1) Protein A was covalently immobilised to a CM5 chip surface using standard amine coupling techniques at a concentration of 50 μg/ml in 10 mM Sodium acetate, pH 4.0. The antibody was captured onto the Protein A surface in HBS-EP+ buffer, pH 7.4 at 10 μl/min to enable FRα ECD binding. The FRα ECD was serially diluted (0.4 nM-100 nM human FRα ECD; 0.8 nM-200 nM cyno FRα ECD; 30 nM-4000 nM mouse FRα ECD and rat FRα ECD) in HBS-EP+ buffer, pH 7.4 and flowed over the chip at 50 μl/min, with 2 minutes association and 8 minutes dissociation. The chip surface was fully regenerated with pulses of 3 M MgCl2 to remove captured antibody together with any bound FRα ECD. Multiple buffer-only injections were made under the same conditions to allow for double reference subtraction of the final sensorgram sets, which were analysed using Biacore T200 Evaluation Software to derive equilibrium dissociation constants.

| Molecule | ka | kd |
| --- | --- | --- |
| B1 | 195000 M⁻¹ s⁻¹ | 0.000342 s⁻¹ |
| B2 | 95800 M⁻¹ s⁻¹ | 0.00183 s⁻¹ |
| B3 | 101000 M⁻¹ s⁻¹ | 0.00016 s⁻¹ |
| B4 | 475000 M⁻¹ s⁻¹ | 0.000508 s⁻¹ |

Test system: not listed separately
Test: Pharmacokinetics of anti-FRα antibodies in wild-type SCID mice
Format: in vivo, mouse
Details: 5 mg/kg iv bolus, total antibody
Experimental: Pharmacokinetic parameters were determined using Phoenix 64 software (Certara).
Plasma antibody concentrations were determined by the universal ELISA IgG assay.

| Molecule | AUClast | CL | Cmax | Vss | t1/2 |
| --- | --- | --- | --- | --- | --- |
| B1 | 553 µg·days/mL | 5.3 mL/day/kg | 91.7 µg/mL | 0.124 L/kg | 16.6 days |
| B2 | 646 µg·days/mL | 6.6 mL/day/kg | 123.2 µg/mL | 0.071 L/kg | 7.8 days |
| B3 | 430 µg·days/mL | 8.6 mL/day/kg | 86.0 µg/mL | 0.132 L/kg | 11.0 days |
| B4 | 455 µg·days/mL | 5.6 mL/day/kg | 73.2 µg/mL | 0.16 L/kg | 19.5 days |

Target: T1, human FRβ (Homo sapiens, UniProt P14207)
T1 construct: CD33 signal peptide (N, cleaved yes); made in house
T1 sequence (P14207 with tags, fused parts or gaps): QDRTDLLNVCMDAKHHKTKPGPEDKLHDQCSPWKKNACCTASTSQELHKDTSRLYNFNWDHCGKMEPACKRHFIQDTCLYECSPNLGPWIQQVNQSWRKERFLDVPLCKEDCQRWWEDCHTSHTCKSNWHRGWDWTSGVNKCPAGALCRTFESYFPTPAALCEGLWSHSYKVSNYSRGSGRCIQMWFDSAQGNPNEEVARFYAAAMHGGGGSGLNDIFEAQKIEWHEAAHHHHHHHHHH
Test: HTRF antigen (IgG) binding assay
Details: hybridoma supernatant, 1 nM biotinylated antigen; binder >30% delta F
Experimental: (§2) The negative control ratio was derived from nonspecific binding (NSB) control wells. Curves were analysed using GraphPad Prism software using a four-parameter logistic curve-fitting equation.

| Molecule | HTRF IgG binding assay (% Delta F) Human FRβ |
| --- | --- |
| B1 | −0.38 % Delta F |
| B2 | −5.87 % Delta F |
| B3 | 3.81 % Delta F |
| B4 | −3.26 % Delta F |

Target: T2, mouse FRα (Mus musculus, UniProt P35846)
T2 construct: CD33 signal peptide (N, cleaved yes); made in house
T2 sequence (P35846 with tags, fused parts or gaps): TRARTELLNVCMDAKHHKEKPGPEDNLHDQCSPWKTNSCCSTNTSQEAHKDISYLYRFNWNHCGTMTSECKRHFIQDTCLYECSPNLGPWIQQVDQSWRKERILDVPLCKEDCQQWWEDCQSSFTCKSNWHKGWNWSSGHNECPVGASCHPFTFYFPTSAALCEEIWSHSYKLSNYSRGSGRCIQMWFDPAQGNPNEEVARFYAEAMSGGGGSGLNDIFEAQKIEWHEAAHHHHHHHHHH
Test: HTRF antigen (IgG) binding assay
Details: hybridoma supernatant, 1 nM biotinylated antigen; binder >30% delta F
Experimental: as §2

| Molecule | HTRF IgG binding assay (% Delta F) Mouse FRα |
| --- | --- |
| B1 | 1.63 % Delta F |
| B2 | −5.66 % Delta F |
| B3 | −3.65 % Delta F |
| B4 | −5.22 % Delta F |

Target: T3, human FRγ (Homo sapiens, UniProt P41439)
T3 construct: CD33 signal peptide (N, cleaved yes); made in house
T3 sequence (P41439 with tags, fused parts or gaps): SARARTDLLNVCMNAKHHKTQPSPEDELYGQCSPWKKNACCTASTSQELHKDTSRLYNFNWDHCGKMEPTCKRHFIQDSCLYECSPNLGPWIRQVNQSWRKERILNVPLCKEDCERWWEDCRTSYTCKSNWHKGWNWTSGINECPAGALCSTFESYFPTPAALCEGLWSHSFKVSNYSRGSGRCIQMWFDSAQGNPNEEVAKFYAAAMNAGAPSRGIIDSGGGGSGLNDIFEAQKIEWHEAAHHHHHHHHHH
Test: HTRF antigen (IgG) binding assay
Details: hybridoma supernatant, 1 nM biotinylated antigen; binder >30% delta F
Experimental: as §2

| Molecule | HTRF IgG binding assay (% Delta F) Human FRγ |
| --- | --- |
| B1 | 1.31 % Delta F |
| B2 | −1.17 % Delta F |
| B3 | −2.92 % Delta F |
| B4 | 9.2 % Delta F |

Target: T4, human FRα (Homo sapiens, UniProt P15328)
T4 construct: CD33 leader (signal peptide) (N, cleaved yes); made in house; host or cells: in-house suspension-adapted CHO cell line
T4 sequence (P15328 with tags, fused parts or gaps): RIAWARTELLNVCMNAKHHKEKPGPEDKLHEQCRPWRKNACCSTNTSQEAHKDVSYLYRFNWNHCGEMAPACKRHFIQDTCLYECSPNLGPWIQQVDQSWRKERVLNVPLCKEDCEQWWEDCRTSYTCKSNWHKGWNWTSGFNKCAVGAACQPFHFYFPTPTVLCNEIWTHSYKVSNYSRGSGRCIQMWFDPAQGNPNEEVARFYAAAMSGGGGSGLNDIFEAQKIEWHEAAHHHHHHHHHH
Test: HTRF antigen (IgG) binding assay
Details: hybridoma supernatant, 1 nM biotinylated antigen; binder >30% delta F
Experimental: as §2

| Molecule | HTRF IgG binding assay (% Delta F) Human FRα |
| --- | --- |
| B1 | 270.58 % Delta F |
| B2 | 126.25 % Delta F |
| B3 | 139.98 % Delta F |
| B4 | 225.19 % Delta F |

Test system: cyno FRα
Test: HTRF antigen (IgG) binding assay
Set-up: species or system cynomolgus monkey
Details: hybridoma supernatant, 1 nM biotinylated antigen; binder >30% delta F
Experimental: as §2

| Molecule | HTRF IgG binding assay (% Delta F) Cyno FRα |
| --- | --- |
| B1 | 213.68 % Delta F |
| B2 | 85.33 % Delta F |
| B3 | 85.16 % Delta F |
| B4 | 141.47 % Delta F |

Target: T4, human FRα
Test: HTRF epitope competition assay with Comparator 2 IgG
Format: binding
Details: n > 2; human IgG1 format
Experimental: (§3) HTRF epitope competition assays were set up using a titration of test IgG, 1 nM streptavidin cryptate, biotinylated human FRα and DyLight 650 labelled IgG to assay volume of 10 μl. For the Comparator Antibody 1 and Comparator Antibody 2 assays, 0.5 nM biotinylated human FRα and 0.5 nM DyLight 650 labelled Comparator Antibody 1 or Comparator Antibody 2 was used. […] Assay plates were incubated for 3-4 h at room temperature prior to fluorescence measurement.

| Molecule | HTRF epitope competition assay, geomean IC50 (M), Comparator 2 IgG |
| --- | --- |
| B1 | inhibited |
| B2 | inhibited |
| B3 | inhibited |
| B4 | inhibited |

Target: T4, human FRα
Test: Biacore T200 surface plasmon resonance affinity
Format: binding
Details: SPR 25° C.
Experimental: as §1

| Molecule | ka | kd |
| --- | --- | --- |
| B1 | 279000 M⁻¹ s⁻¹ | 0.000354 s⁻¹ |
| B2 | 95700 M⁻¹ s⁻¹ | 0.00129 s⁻¹ |
| B3 | 145000 M⁻¹ s⁻¹ | 0.000135 s⁻¹ |
| B4 | 568000 M⁻¹ s⁻¹ | 0.000527 s⁻¹ |

Target: T4, human FRα
Test: HTRF epitope competition assay with Comparator 1 IgG
Format: binding
Details: n > 2; human IgG1 format
Experimental: as §3

| Molecule | HTRF epitope competition assay, geomean IC50 (M), Comparator 1 IgG |
| --- | --- |
| B1 | inhibited |
| B2 | inhibited |
| B3 | inhibited |
| B4 | inhibited |

Target: T4, human FRα
Test: HTRF epitope competition assay with Comparator 3 IgG
Format: binding
Details: n > 2; human IgG1 format
Experimental: as §3

| Molecule | HTRF epitope competition assay, geomean IC50 (M), Comparator 3 IgG |
| --- | --- |
| B1 | no inhibition |
| B2 | no inhibition |
| B3 | no inhibition |
| B4 | inhibited |
